5 molecules from article PMC9371972, “Cryo-EM structure of the human CST–Polα/primase complex in a recruitment state” (Nature Structural & Molecular Biology, 2022) can be followed below.

Assay [1] concerns the target CTC1–STN1–TEN1 (CST) complex (human) (UniProt Q2NKJ3). The assay can be described thus: cryo-EM structure; CST and Polα/primase (PP^FL or PP^ΔN) mixed equimolar (1.5 μM each) with (GGTTAG)3 ssDNA, cross-linked by GraFix (glutaraldehyde, glycerol gradient), 20 mM HEPES pH 7.5, 150 mM NaCl, 10 mM MgCl2, 0.5 mM TCEP.
Assay [2] deals with T1, His6-MBP-CTC1–STN1–TEN1 (human, UniProt Q2NKJ3 1-1217; Q9H668 1-368; Q86WV5 1-123, RED-tris-NTA second-generation dye on the His6 tag).
T1 chain 1: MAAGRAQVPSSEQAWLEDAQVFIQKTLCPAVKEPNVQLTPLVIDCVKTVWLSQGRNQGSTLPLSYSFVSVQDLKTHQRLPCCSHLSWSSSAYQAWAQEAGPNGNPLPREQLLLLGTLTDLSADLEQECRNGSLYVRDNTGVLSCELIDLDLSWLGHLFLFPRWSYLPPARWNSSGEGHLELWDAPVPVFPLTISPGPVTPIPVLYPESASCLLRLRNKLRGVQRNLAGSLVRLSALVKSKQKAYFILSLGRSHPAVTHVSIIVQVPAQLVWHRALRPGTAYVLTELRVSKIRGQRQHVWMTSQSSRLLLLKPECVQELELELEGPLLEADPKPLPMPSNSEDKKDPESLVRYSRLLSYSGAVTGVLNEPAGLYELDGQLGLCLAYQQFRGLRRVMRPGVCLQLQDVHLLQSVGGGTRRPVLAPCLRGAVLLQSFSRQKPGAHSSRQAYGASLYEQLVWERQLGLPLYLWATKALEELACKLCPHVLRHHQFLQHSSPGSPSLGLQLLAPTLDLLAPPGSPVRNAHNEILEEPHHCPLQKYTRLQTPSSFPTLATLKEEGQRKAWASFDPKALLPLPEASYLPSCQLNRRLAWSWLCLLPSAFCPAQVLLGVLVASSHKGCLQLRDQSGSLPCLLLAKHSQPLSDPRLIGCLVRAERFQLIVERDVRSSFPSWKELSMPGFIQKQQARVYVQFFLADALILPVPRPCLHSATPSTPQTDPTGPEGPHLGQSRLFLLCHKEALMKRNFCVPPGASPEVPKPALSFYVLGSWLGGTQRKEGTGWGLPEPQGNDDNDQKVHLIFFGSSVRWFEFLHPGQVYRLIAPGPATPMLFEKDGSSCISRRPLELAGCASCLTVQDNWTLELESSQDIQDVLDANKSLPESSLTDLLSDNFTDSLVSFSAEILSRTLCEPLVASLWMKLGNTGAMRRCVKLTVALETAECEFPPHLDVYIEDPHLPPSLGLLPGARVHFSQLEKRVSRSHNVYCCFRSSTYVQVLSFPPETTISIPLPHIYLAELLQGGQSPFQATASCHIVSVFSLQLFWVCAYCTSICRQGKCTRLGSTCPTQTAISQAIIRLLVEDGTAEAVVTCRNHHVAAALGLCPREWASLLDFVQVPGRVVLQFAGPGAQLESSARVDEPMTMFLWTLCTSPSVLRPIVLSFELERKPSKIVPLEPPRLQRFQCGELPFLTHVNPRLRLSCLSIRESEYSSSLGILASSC
T1 chain 2: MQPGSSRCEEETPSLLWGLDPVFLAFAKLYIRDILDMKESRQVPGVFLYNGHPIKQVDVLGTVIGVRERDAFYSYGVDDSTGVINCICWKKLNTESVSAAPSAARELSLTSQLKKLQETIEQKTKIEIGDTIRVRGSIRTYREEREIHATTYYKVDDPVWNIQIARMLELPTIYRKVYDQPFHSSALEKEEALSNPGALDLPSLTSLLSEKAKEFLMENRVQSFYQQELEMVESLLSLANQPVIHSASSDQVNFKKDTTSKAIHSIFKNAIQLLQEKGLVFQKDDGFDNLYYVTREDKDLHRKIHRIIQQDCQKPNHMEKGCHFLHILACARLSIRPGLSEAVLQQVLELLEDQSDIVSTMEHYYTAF
T1 chain 3: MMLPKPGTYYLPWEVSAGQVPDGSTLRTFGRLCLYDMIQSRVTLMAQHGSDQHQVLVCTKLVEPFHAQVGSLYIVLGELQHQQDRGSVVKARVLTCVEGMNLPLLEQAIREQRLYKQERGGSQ
Kind of assay: MST; binding event 1, independent experiment 1.

Assay [3] deals with T1, His6-MBP-CTC1–STN1–TEN1. Kind of assay: MST; binding event 2 (second site), independent experiment 3.
Assay [4] has as its target T1, His6-MBP-CTC1–STN1–TEN1. The assay can be described thus: MST; binding event 1, independent experiment 3.
In assay [5] the target is T1, His6-MBP-CTC1–STN1–TEN1. The assay can be described thus: MST; binding event 2 (second site), independent experiment 2.
Assay [6] concerns the target T1, His6-MBP-CTC1–STN1–TEN1. The assay can be described thus: MST; binding event 2 (second site), independent experiment 1.
Assay [7] addresses T1, His6-MBP-CTC1–STN1–TEN1. The assay can be described thus: MST; binding event 1, independent experiment 2.
Assay [8] concerns the target T2, His6-MBP-CTC1–STN1–TEN1 (human, UniProt Q2NKJ3 1-1217; Q9H668 1-368; Q86WV5 1-123, RED-tris-NTA second-generation dye on the His6 tag).
T2 construct: human CTC1; human STN1; human TEN1; A PreScission site lies between MBP and CTC1; also called His6-MBP-CST; fluorescently labeled CST; source: Tni insect cells (baculovirus), purified (Ni-NTA, heparin, SEC; protease-cleavage step omitted); not shown: His6, N-terminal, kept; MBP, N-terminal, kept; copies: + +
Kind of assay: MST; 50 nM RED-tris-NTA-labeled His6-MBP-CST with serial dilutions of unlabeled POLA1^CTD constructs; room temperature; 20 mM HEPES pH 7.5, 150 mM NaCl, 5 mM DTT, 0.05% Tween-20; CRL^WT data split into two binding events. As to conditions: both partners purified.

In assay [9] the target is T3, full-length Polα/primase (POLA1^FL/POLA2/PRIM1/PRIM2) (human, UniProt P09884 1-1462; Q14181 1-598; P49642 1-420; P49643 1-509).
T3 construct: human POLA2; human PRIM1; human PRIM2; The methods describe no tag cleavage for this complex (PreSc site after MBP, TEV site after StrepII); also called PP^FL; DNA polymerase α–primase; source: Tni insect cells (baculovirus), purified (Ni-NTA, RESOURCE Q, SEC); copies: + + +
T3 sequence (Q14181 whole entry, chain 2 of 3): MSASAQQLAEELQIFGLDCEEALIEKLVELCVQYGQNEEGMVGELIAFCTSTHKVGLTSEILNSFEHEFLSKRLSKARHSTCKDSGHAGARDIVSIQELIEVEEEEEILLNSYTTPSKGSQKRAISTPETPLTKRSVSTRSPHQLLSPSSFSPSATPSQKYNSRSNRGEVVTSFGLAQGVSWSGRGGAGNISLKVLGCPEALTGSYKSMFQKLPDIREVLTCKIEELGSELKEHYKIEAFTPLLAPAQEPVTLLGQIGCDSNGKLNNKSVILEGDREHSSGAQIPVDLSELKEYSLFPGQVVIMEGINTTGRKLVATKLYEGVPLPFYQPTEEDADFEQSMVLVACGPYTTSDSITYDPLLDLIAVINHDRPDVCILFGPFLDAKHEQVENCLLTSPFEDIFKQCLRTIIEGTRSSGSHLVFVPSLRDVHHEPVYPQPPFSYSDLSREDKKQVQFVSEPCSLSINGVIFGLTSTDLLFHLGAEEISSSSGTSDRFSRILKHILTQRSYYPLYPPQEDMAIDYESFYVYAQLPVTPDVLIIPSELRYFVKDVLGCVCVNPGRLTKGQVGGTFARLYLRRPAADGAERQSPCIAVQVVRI
T3 sequence (P49642 whole entry, chain 3 of 3): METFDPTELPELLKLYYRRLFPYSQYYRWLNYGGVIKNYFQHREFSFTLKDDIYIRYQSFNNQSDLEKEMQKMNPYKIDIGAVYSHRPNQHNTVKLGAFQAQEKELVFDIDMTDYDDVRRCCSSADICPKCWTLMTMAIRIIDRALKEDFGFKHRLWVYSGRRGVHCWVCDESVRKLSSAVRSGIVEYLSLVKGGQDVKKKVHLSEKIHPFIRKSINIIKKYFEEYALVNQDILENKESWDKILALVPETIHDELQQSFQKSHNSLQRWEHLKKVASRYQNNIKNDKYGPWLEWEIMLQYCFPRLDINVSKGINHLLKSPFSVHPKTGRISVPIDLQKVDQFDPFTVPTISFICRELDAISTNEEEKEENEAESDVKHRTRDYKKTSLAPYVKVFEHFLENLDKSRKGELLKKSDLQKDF
T3 sequence (P49643 whole entry, chain 4 of 3): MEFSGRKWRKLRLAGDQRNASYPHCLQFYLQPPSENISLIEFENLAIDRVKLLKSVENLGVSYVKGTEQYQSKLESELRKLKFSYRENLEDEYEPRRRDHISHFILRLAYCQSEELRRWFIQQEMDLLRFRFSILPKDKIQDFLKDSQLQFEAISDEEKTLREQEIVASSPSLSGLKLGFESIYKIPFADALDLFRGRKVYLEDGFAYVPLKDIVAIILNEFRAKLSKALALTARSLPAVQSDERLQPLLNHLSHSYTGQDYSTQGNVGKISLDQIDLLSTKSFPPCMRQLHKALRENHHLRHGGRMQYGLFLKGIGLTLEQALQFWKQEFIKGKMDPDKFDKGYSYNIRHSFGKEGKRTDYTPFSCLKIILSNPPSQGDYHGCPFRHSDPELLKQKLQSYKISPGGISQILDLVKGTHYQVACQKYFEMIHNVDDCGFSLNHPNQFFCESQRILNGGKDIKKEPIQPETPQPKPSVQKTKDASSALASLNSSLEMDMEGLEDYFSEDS
Kind of assay: SEC; purified proteins mixed (PP^FL and CST equimolar; CST with twofold molar excess of His6-MBP-POLA1^N), 1 h at 4 °C, HiLoad Superdex 200 16/600 PG, 20 mM HEPES pH 7.5, 150 mM NaCl, 0.5 mM TCEP, 5% glycerol. As to conditions: both partners purified.

As for “full-length Polα/primase (POLA1^FL/POLA2/PRIM1/PRIM2), P09884 1-1462; Q14181 1-598; P49642 1-420; P49643 1-509”, the stoichiometry N in assay [1] amounted to 1.

B1: POLA1^CTD with the wild-type CRL (domain or fragment, human, UniProt P09884 1265-1462, looked up)
chain: AQLTDEEKYRDCERFKCPCPTCGTENIYDNVFDGSGTDMEPSLYRCSNIDCKASPLTFTVQLSNKLIMDIRRFIKKYYDGWLICEEPTCRNRTRHLPLQFSRTGPLCPACMKATLQPEYSDKSLYTQLCFYRYIFDAECALEKLTTDHEKDKLKKQFFTPKVLQDYRKLKNTAEQFLSRSGYSEVNLSKLFAGCAVKS
notes: also called CRL^WT; source: E. coli Rosetta(DE3), purified (Ni-NTA, Ulp1 cleavage, reverse Ni-NTA, SEC); not shown: His6, N-terminal, cleaved; Smt3, N-terminal, cleaved
B1: the Kd in the assay with His6-MBP-CTC1–STN1–TEN1 [2] was 1.4 µM; with His6-MBP-CTC1–STN1–TEN1 [3], 156 µM; with His6-MBP-CTC1–STN1–TEN1 [4], 14 µM; with His6-MBP-CTC1–STN1–TEN1 [5] it was 216 µM; with His6-MBP-CTC1–STN1–TEN1 [6], 56 µM; with His6-MBP-CTC1–STN1–TEN1 [7], 13 µM. Further, the “KD of binding event 1” value with His6-MBP-CTC1–STN1–TEN1 [8] is approximately 3.3 µM. Also, the “KD of binding event 2” value in the assay with His6-MBP-CTC1–STN1–TEN1 [8] was approximately 122 µM.

B2: POLA1^CTD with the CRL swapped for a GGSGGS-linker (domain or fragment, human)
chain: AQLTDEEKYRDCERFKCPCPTCGTENIYDNVFDGSGTDMEPSLYRCSNIDCKASPLTFTVQLSNKLIMDIRRFIKKYYDGWLICEEPTCRNRTRHLPLQFSRTGPLCPACMKATLQPEYSDKSLYTQLCFYRYIFDAEGGSGGSTPKVLQDYRKLKNTAEQFLSRSGYSEVNLSKLFAGCAVKS
notes: linker in place of the CRL (residues 1403-1422); also called CRL^GGSGGS; source: E. coli Rosetta(DE3), purified (Ni-NTA, Ulp1 cleavage, reverse Ni-NTA, SEC); not shown: His6, N-terminal, cleaved; Smt3, N-terminal, cleaved
With B2, the Kd in the assay with His6-MBP-CTC1–STN1–TEN1 [3] was 82 µM; with His6-MBP-CTC1–STN1–TEN1 [5], 79 µM; in the assay with His6-MBP-CTC1–STN1–TEN1 [6], 133 µM. Also, in the assay with His6-MBP-CTC1–STN1–TEN1 [8], the “KD of binding event 2” value was approximately 96 µM.

B3: POLA1^CTD with the CRL swapped for the S. pombe short loop (domain or fragment, human | S. pombe)
chain: AQLTDEEKYRDCERFKCPCPTCGTENIYDNVFDGSGTDMEPSLYRCSNIDCKASPLTFTVQLSNKLIMDIRRFIKKYYDGWLICEEPTCRNRTRHLPLQFSRTGPLCPACMKATLQPEYSDKSLYTQLCFYRYIFQTTTGATKVLQDYRKLKNTAEQFLSRSGYSEVNLSKLFAGCAVKS
notes: short loop of the S. pombe POLA1 orthologue, in place of the human CRL (residues 1400-1424); also called CRL^(S. pombe); source: E. coli Rosetta(DE3), purified (Ni-NTA, Ulp1 cleavage, reverse Ni-NTA, SEC); not shown: His6, N-terminal, cleaved; Smt3, N-terminal, cleaved
B3: the Kd with His6-MBP-CTC1–STN1–TEN1 [3] came to 77 µM; with His6-MBP-CTC1–STN1–TEN1 [5] it was 75 µM; with His6-MBP-CTC1–STN1–TEN1 [6], 134 µM. Moreover, the “KD of binding event 2” value with His6-MBP-CTC1–STN1–TEN1 [8] is approximately 88 µM.

B4: CTC1–STN1–TEN1 (CST) complex (complex, human)
chain 1: MAAGRAQVPSSEQAWLEDAQVFIQKTLCPAVKEPNVQLTPLVIDCVKTVWLSQGRNQGSTLPLSYSFVSVQDLKTHQRLPCCSHLSWSSSAYQAWAQEAGPNGNPLPREQLLLLGTLTDLSADLEQECRNGSLYVRDNTGVLSCELIDLDLSWLGHLFLFPRWSYLPPARWNSSGEGHLELWDAPVPVFPLTISPGPVTPIPVLYPESASCLLRLRNKLRGVQRNLAGSLVRLSALVKSKQKAYFILSLGRSHPAVTHVSIIVQVPAQLVWHRALRPGTAYVLTELRVSKIRGQRQHVWMTSQSSRLLLLKPECVQELELELEGPLLEADPKPLPMPSNSEDKKDPESLVRYSRLLSYSGAVTGVLNEPAGLYELDGQLGLCLAYQQFRGLRRVMRPGVCLQLQDVHLLQSVGGGTRRPVLAPCLRGAVLLQSFSRQKPGAHSSRQAYGASLYEQLVWERQLGLPLYLWATKALEELACKLCPHVLRHHQFLQHSSPGSPSLGLQLLAPTLDLLAPPGSPVRNAHNEILEEPHHCPLQKYTRLQTPSSFPTLATLKEEGQRKAWASFDPKALLPLPEASYLPSCQLNRRLAWSWLCLLPSAFCPAQVLLGVLVASSHKGCLQLRDQSGSLPCLLLAKHSQPLSDPRLIGCLVRAERFQLIVERDVRSSFPSWKELSMPGFIQKQQARVYVQFFLADALILPVPRPCLHSATPSTPQTDPTGPEGPHLGQSRLFLLCHKEALMKRNFCVPPGASPEVPKPALSFYVLGSWLGGTQRKEGTGWGLPEPQGNDDNDQKVHLIFFGSSVRWFEFLHPGQVYRLIAPGPATPMLFEKDGSSCISRRPLELAGCASCLTVQDNWTLELESSQDIQDVLDANKSLPESSLTDLLSDNFTDSLVSFSAEILSRTLCEPLVASLWMKLGNTGAMRRCVKLTVALETAECEFPPHLDVYIEDPHLPPSLGLLPGARVHFSQLEKRVSRSHNVYCCFRSSTYVQVLSFPPETTISIPLPHIYLAELLQGGQSPFQATASCHIVSVFSLQLFWVCAYCTSICRQGKCTRLGSTCPTQTAISQAIIRLLVEDGTAEAVVTCRNHHVAAALGLCPREWASLLDFVQVPGRVVLQFAGPGAQLESSARVDEPMTMFLWTLCTSPSVLRPIVLSFELERKPSKIVPLEPPRLQRFQCGELPFLTHVNPRLRLSCLSIRESEYSSSLGILASSC
chain 2: MQPGSSRCEEETPSLLWGLDPVFLAFAKLYIRDILDMKESRQVPGVFLYNGHPIKQVDVLGTVIGVRERDAFYSYGVDDSTGVINCICWKKLNTESVSAAPSAARELSLTSQLKKLQETIEQKTKIEIGDTIRVRGSIRTYREEREIHATTYYKVDDPVWNIQIARMLELPTIYRKVYDQPFHSSALEKEEALSNPGALDLPSLTSLLSEKAKEFLMENRVQSFYQQELEMVESLLSLANQPVIHSASSDQVNFKKDTTSKAIHSIFKNAIQLLQEKGLVFQKDDGFDNLYYVTREDKDLHRKIHRIIQQDCQKPNHMEKGCHFLHILACARLSIRPGLSEAVLQQVLELLEDQSDIVSTMEHYYTAF
chain 3: MMLPKPGTYYLPWEVSAGQVPDGSTLRTFGRLCLYDMIQSRVTLMAQHGSDQHQVLVCTKLVEPFHAQVGSLYIVLGELQHQQDRGSVVKARVLTCVEGMNLPLLEQAIREQRLYKQERGGSQ
notes: human CTC1; human STN1; human TEN1; Expressed from pBIG1a(His6-MBP-PreSc-CTC1/STN1/TEN1); tag removed with rhinovirus 3C protease; source: Tni insect cells (baculovirus), purified (Ni-NTA, 3C protease cleavage, heparin, SEC); not shown: His6, N-terminal, cleaved; MBP, N-terminal, cleaved; copies: + +
Turning to B4, the binding result in [9] is listed as “binds”.
